According to patent US20060280804A1:

Biological target: angiotensin converting enzyme (ACE, EC 3.4.15.1, Sigma)
Assay: cell-based or functional assay

ACEI activity, IC50: > 750 µg/mL
Substance: ovalbumin grade VI (99% purity, Sigma), unhydrolysed (from UniProt P01012 2-386)
